From PMC10638397, “Engineering sulfonate group donor regeneration systems to boost biosynthesis of sulfated compounds” (Nature Communications, 2023)

Key:
[1] = substrate: Nc1ncnc2c1ncn2[C@@H]1O[C@H](COP(=O)(O)OS(=O)(=O)O)[C@@H](OP(=O)(O)O)[C@H]1O; experiment: sulfotransferase kinetics, HPLC-MS; assay type: biochemical, Mycolicibacterium smegmatis; details: sulfonate acceptor trehalose, Mg2+, pH 7.5, 35 °C (general assay)
Source text: sulfotransferase kinetics, HPLC-MS on trehalose sulfotransferase (Stf0)

[2] = substrate: Nc1ncnc2c1ncn2[C@@H]1O[C@H](COP(=O)(O)OS(=O)(=O)O)[C@@H](OP(=O)(O)O)[C@H]1O; experiment: sulfotransferase kinetics, HPLC-MS; assay type: biochemical, Rattus norvegicus; details: Mg2+, pH 7.5, 35 °C (general assay), acceptor not given
Source text: sulfotransferase kinetics, HPLC-MS on aryl sulfotransferase IV (AST IV)

purified protein = substrate: Nc1ncnc2c1ncn2[C@@H]1O[C@H](COP(=O)(O)OS(=O)(=O)O)[C@@H](O)[C@H]1O; experiment: purified protein; details: Mg2+, pH 7.5, 35 °C (general assay), acceptor not given
[3] = substrate: Nc1ncnc2c1ncn2[C@@H]1O[C@H](COP(=O)(O)OS(=O)(=O)O)[C@@H](OP(=O)(O)O)[C@H]1O; experiment: sulfotransferase kinetics, HPLC-MS; assay type: biochemical, Mus musculus; details: Mg2+, pH 7.5, 35 °C (general assay), acceptor not given

B1: trehalose sulfotransferase (Stf0) (Mycolicibacterium smegmatis MC2 155) (protein)
chain: MSDHPTAYLVLASQRSGSTLLVESLRATGVAGEPQEFFQYLPNTSMSPQPREWFADVEDQSILRLLDPLIEGKPDLAPATIWRDYIQTVGRTPNGVWGGKLMWNQTPLLVQRAKDLPDRSGSGLLSAIRDVVGSDPVLIHIHRPDVVSQAVSFWRAVQTRVWRGRPDPVRDARAEYHAGAIAHVITMLRAQEEGWRAWFTEENVEPIDVDYPYLWRNLTEVVGTVLEALGQDPRLAPKPVLERQADQRSDEWVERYRRDAQRDGLPL
How did the Km [1] turn out when B1 was run?
The Km was 820 ± 60 µM.

And the kcat [1]?
Its kcat is 0.00988 ± 0.00025 s⁻¹.

And the kcat/Km [1]?
Its kcat/Km is 12.1 M⁻¹ s⁻¹.

B2: aryl sulfotransferase IV (AST IV) (Rattus norvegicus) (protein)
chain: MEFSRPPLVHVKGIPLIKYFAETIGPLQNFTAWPDDLLISTYPKSGTTWMSEILDMIYQGGKLEKCGRAPIYARVPFLEFKCPGVPSGLETLEETPAPRLLKTHLPLSLLPQSLLDQKVKVIYIARNAKDVVVSYYNFYNMAKLHPDPGTWDSFLENFMDGEVSYGSWYQHVKEWWELRHTHPVLYLFYEDIKENPKREIKKILEFLGRSLPEETVDSIVHHTSFKKMKENCMTNYTTIPTEIMDHNVSPFMRKGTTGDWKNTFTVAQNERFDAHYAKTMTDCDFKFRCEL
notes: recombinant in E. coli; N-terminal GST fusion printed for the whole-cell work
With B2 as the protein, how does the Km [2] read?
Its Km is 1430 ± 172 µM.

What about the kcat [2] of the same protein?
The kcat was 0.0131 ± 0.000614 s⁻¹.

And the kcat/Km [2]?
The kcat/Km was 9.19 M⁻¹ s⁻¹.

And the Km (purified protein)?
Its Km is 2450 ± 500 µM.

And the kcat (purified protein)?
Its kcat is 0.00688 s⁻¹.

What about the kcat/Km (purified protein) of the same protein?
The kcat/Km was 2.81 M⁻¹ s⁻¹.

B3: estrogen sulfotransferase (EST) (Mus musculus) (protein)
chain: METSMPEYYEVFGEFRGVLMDKRFTKYWEDVEMFLARPDDLVIATYPKSGTTWISEVVYMIYKEGDVEKCKEDAIFNRIPYLECRNEDLINGIKQLKEKESPRIVKTHLPPKLLPASFWEKNCKMIYLCRNAKDVAVSYYYFLLMITSYPNPKSFSEFVEKFMQGQVPYGSWYDHVKAWWEKSKNSRVLFMFYEDMKEDIRREVVKLIEFLERKPSAELVDRIIQHTSFQEMKNNPSTNYTMMPEEMMNQKVSPFMRKGIIGDWKNHFPEALRERFDEHYKQQMKDCTVKFRMEL
How did the Km [3] turn out when B3 was run?
Its Km is 1560 ± 260 µM.

And the kcat [3]?
Its kcat is 0.00849 ± 0.000572 s⁻¹.

What about the kcat/Km [3] of the same protein?
Its kcat/Km is 5.44 M⁻¹ s⁻¹.
